Experimental data from paper PMC4454446.
Like-named read-outs stand apart in the source and are kept apart here.

What was measured:
[1] = molecular target: chicken bestrophin-1 crystallization construct, amino acids 1-405 (Best1_(cryst)) (chicken (Gallus gallus)); assay: crystal structure
[2] = molecular target: chicken bestrophin-1 crystallization construct, amino acids 1-405 (Best1_(cryst)) (chicken (Gallus gallus)); assay: SEC
[3] = molecular target: chicken bestrophin-1 crystallization construct, amino acids 1-405 (Best1_(cryst)) (chicken (Gallus gallus)); assay: SEC; remark: listed apart in the source

Row | Molecule | stoichiometry N [1] | Kd [2] [nM] | Kd [3] [nM]
1 | chicken bestrophin-1 crystallization construct, amino acids 1-405 (Best1_(cryst)) (domain or fragment) | 5 |  | 
2 | Fab fragment of mouse monoclonal antibody 10D10 (Fab, V domains shown) VH: QVQLQQSGPELVRPGASVKMSCKASGYTFTNYWMHWVKQRPGQALEWIGMIDPSKSETTLNQKFRGKATLNVDKSSNTAYMQLSSLTSEDSAVYYCAREVYYFDYWGQGTTLTVSS VL: DIQMTQSPASLSASVGETVTITCRASENIYSYLTWYQQKQGKSPQLLVYNAKTLTEGVPSRFSGSGSGTQFSLKINSLQPEDFGGYFCQHHYGTPPTFGGGTKLEVK |  | 15 | 350
